Seven molecules from PMC12502808, “Catalytic His-loop flexibility drives high activity in hyperthermophilic esterase EstE1 while preserving structural stability” (Microbiology Spectrum, 2025) can be followed below.

Broadly, the Km is the concentration of substrate that gives half-maximal velocity. As a reminder, the kcat is the maximal rate divided by the concentration of active sites. For orientation: kcat/Km means the turnover number divided by the Michaelis constant. By stoichiometry N is commonly meant a count of units in the complex or per binding partner.

Data set [1] has as its system CC(=O)Oc1ccc([N+](=O)[O-])cc1. The data set is described as follows: purified protein. The format is biochemical, Pseudomonas sp. ECU1011. To be noted: 100 mM Tris-HCl, 100 mM NaCl, pH 7.5, optimal temperature (45-50°C for WT, 30°C for mutants).
Data set [2] deals with EstE1 wild type (hyperthermophilic esterase). Kind of data set: SEC; Superdex 200 column equilibrated with 50 mM sodium phosphate, 150 mM NaCl, pH 7.0; molecular weight determination of the purified protein. For orientation: SEC sorts molecules by how far they enter the pores of the column.
Substrate in data set [3]: CCCCCC(=O)Oc1ccc([N+](=O)[O-])cc1
The data set is described as follows: purified protein. It is filed as biochemical, uncultured archaeon. To be noted: 100 mM Tris-HCl, 100 mM NaCl, pH 7.5, optimal temperature 70°C.

Substrate in data set [4]: CC(=O)Oc1ccc([N+](=O)[O-])cc1
Kind of data set: purified protein. The format is biochemical, Pseudomonas sp. ECU1011. To be noted: 100 mM Tris-HCl, 100 mM NaCl, pH 7.5, optimal temperature (45-50°C).

In the case of rPPE (Pseudomonas sp. ECU1011; D287E), in data set [1], the Km was determined as 6 ± 1 µM, the kcat worked out at 2.1 ± 0.1 s⁻¹ and the kcat/Km worked out at 330000 ± 20000 M⁻¹ s⁻¹.

Molecule “EstE1 wild type (hyperthermophilic esterase) (enzyme)” yielded a stoichiometry N in data set [2] of 2.

rPPE (Pseudomonas sp. ECU1011; D287G): in data set [1], the Km was 114 ± 2 µM, the kcat came to 13 ± 1 s⁻¹ and the kcat/Km worked out at 110000 ± 10000 M⁻¹ s⁻¹.

B1: EstE1 (uncultured archaeon) (protein)
chain: MPLDPQIKPILERIRALSIAASPQELRRQVEEQSRLLTAAVQEPIAETRDVHIPVSGGSIRARVYFPKKAAGLPAVLYYHGGGFVFGSIETHDHICRRLSRLSDSVVVSVDYRLAPEYKFPTAVEDAYAALKWVADRADELGVDPDRIAVAGDSAGGNLAAVVSILDRNSGEKLVKKQVLIYPVVNMTGVPTASLVEFGVAETTSLPIELMVWFGRQYLKRPEEAYDFKASPLLADLGGLPPALVVTAEYDPLRDEGELYAYKMKASGSRAVAVRFAGMVHGFVSFYPFVDAGREALDLAAASIRSGLQPS
For the molecule B1, in the data set “purified protein [3]”, the Km amounted to 1520 ± 17 µM, the kcat amounted to 2900 ± 1 s⁻¹ and the kcat/Km came out at 1.91e+06 ± 20000 M⁻¹ s⁻¹.

B2: EstE1 (uncultured archaeon; G282N) (protein)
chain: MPLDPQIKPILERIRALSIAASPQELRRQVEEQSRLLTAAVQEPIAETRDVHIPVSGGSIRARVYFPKKAAGLPAVLYYHGGGFVFGSIETHDHICRRLSRLSDSVVVSVDYRLAPEYKFPTAVEDAYAALKWVADRADELGVDPDRIAVAGDSAGGNLAAVVSILDRNSGEKLVKKQVLIYPVVNMTGVPTASLVEFGVAETTSLPIELMVWFGRQYLKRPEEAYDFKASPLLADLGGLPPALVVTAEYDPLRDEGELYAYKMKASGSRAVAVRFAGMVHNFVSFYPFVDAGREALDLAAASIRSGLQPS
B2: in the data set “purified protein [3]”, the Km turned out to be 1330 ± 79 µM, the kcat was determined as 1980 ± 84 s⁻¹ and the specificity constant (kcat/Km) came out at 1.49e+06 ± 30000 M⁻¹ s⁻¹.

B3: EstE1 (uncultured archaeon; G282Q) (protein)
chain: MPLDPQIKPILERIRALSIAASPQELRRQVEEQSRLLTAAVQEPIAETRDVHIPVSGGSIRARVYFPKKAAGLPAVLYYHGGGFVFGSIETHDHICRRLSRLSDSVVVSVDYRLAPEYKFPTAVEDAYAALKWVADRADELGVDPDRIAVAGDSAGGNLAAVVSILDRNSGEKLVKKQVLIYPVVNMTGVPTASLVEFGVAETTSLPIELMVWFGRQYLKRPEEAYDFKASPLLADLGGLPPALVVTAEYDPLRDEGELYAYKMKASGSRAVAVRFAGMVHQFVSFYPFVDAGREALDLAAASIRSGLQPS
For B3, in “purified protein [3]”, the Km was determined as 745 ± 40 µM, the kcat was 950 ± 27 s⁻¹ and the kcat/Km turned out to be 1.28e+06 ± 30000 M⁻¹ s⁻¹.

B4: rPPE (Pseudomonas sp. ECU1011) (protein)
chain: GSPGVEQHTKAFLEALEQGGGKPLEQLSPKDARAVLTGAQASVKVDLSGIEVKERTIQANGQSIKLQVVRPANVKGELPVFMFFHGGGWVLGDFPTHQRLIRDLVVGSGAVAVYVDYTPSPESHYPTAINQAYAATQWVAEHGKEIGVDGKRLAVAGNSVGGNMAAVVALKAKEAGTPALRFQLLLWPVTDASFETASYKQFADGHFLTTGMMKWFWDNYTTDAKAREQIYASPLRASSEQLKGLPPALVQTAEFDVLRDEGEAYARKLNAAGVTVTSVRYNGMIHDYGLLNPLSQVPAVKAAMRQAGTELKVHLQ
For B4, in the data set “purified protein [4]”, the Km is 33 ± 1 µM, the kcat was found to be 2 ± 0.1 s⁻¹ and the kcat/Km turned out to be 60000 ± 10000 M⁻¹ s⁻¹.
